Reference: patent US20160272683A1 (Novo Nordisk, published 2016)
Numbered stars: 1 amine (or outer) side, 2 acyl side, 3 side chain; on linkers, the order of the positions; unused ones are H or OH. * marks the point of attachment. C20 diacid = O=C(O)CCCCCCCCCCCCCCCCCCC(=O)*; C18 diacid = O=C(O)CCCCCCCCCCCCCCCCC(=O)*; γGlu = O=C(O)[C@H](CCC(=O)[*:2])N[*:1]; AEEA = NCCOCCOCC(=O)O

T1: human amylin 3(a) receptor (human calcitonin receptor co-expressed with RAMP-3) (human, UniProt P30988 25-474; O60896 24-148, limits assumed)
T1 sequence (looked up) 1: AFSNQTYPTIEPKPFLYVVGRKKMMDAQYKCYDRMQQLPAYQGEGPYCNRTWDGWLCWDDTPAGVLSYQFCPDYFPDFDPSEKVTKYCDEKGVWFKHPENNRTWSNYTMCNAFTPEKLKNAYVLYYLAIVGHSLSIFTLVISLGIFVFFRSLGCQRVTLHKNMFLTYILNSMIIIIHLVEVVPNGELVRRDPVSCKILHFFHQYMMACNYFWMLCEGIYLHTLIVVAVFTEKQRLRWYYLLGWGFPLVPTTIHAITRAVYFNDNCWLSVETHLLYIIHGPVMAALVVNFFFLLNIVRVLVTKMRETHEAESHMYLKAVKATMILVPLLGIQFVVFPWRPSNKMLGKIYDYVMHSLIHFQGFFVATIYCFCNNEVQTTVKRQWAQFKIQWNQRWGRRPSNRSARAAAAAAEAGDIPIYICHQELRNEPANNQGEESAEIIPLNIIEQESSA
T1 sequence (looked up) 2: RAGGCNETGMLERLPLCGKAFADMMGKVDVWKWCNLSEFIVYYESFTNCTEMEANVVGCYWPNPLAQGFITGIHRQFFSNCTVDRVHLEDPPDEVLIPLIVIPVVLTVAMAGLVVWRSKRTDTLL

T2: human calcitonin receptor (human, UniProt P30988 25-474)
T2 sequence (looked up): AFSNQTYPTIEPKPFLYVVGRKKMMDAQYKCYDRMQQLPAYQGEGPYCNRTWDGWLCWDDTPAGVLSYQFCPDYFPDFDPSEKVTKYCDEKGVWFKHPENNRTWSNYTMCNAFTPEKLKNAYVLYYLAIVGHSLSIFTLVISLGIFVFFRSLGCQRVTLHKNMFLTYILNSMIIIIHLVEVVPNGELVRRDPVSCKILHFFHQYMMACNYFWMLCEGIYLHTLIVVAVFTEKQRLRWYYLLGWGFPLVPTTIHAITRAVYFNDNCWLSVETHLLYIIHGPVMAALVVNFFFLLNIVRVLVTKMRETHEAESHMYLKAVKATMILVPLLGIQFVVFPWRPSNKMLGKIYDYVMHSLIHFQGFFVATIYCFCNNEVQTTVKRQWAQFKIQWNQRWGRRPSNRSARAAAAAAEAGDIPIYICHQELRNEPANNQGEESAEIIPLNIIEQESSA


Tests used:
[1] = molecular target: T1, human amylin 3(a) receptor (human …); experiment: cell-based or functional assay
[2] = molecular target: T2, human calcitonin receptor; experiment: cell-based or functional assay

Binder	hAmylin-R funct. EC50 (pM) [1]	hCTR funct. EC50 (pM) [2]
{C20 diacid-γGlu}-ASGLSTAVLGRLSQELHELQTYPRTETGSATY-NH2 (SMILES CC(C)C[C@H](NC(=O)CNC(=O)[C@H](CO)NC(=O)[C@H](C)NC(=O)CC[C@H](NC(=O)CCCCCCCCCCCCCCCCCCC(=O)O)C(=O)O)C(=O)N[C@@H](CO)C(=O)N[C@H](C(=O)N[C@@H](C)C(=O)N[C@H](C(=O)N[C@@H](CC(C)C)C(=O)NCC(=O)N[C@@H](CCCNC(=N)N)C(=O)N[C@@H](CC(C)C)C(=O)N[C@@H](CO)C(=O)N[C@@H](CCC(N)=O)C(=O)N[C@@H](CCC(=O)O)C(=O)N[C@@H](CC(C)C)C(=O)N[C@@H](Cc1c[nH]cn1)C(=O)N[C@@H](CCC(=O)O)C(=O)N[C@@H](CC(C)C)C(=O)N[C@@H](CCC(N)=O)C(=O)N[C@H](C(=O)N[C@@H](Cc1ccc(O)cc1)C(=O)N1CCC[C@H]1C(=O)N[C@@H](CCCNC(=N)N)C(=O)N[C@H](C(=O)N[C@@H](CCC(=O)O)C(=O)N[C@H](C(=O)NCC(=O)N[C@@H](CO)C(=O)N[C@@H](C)C(=O)N[C@H](C(=O)N[C@@H](Cc1ccc(O)cc1)C(N)=O)[C@@H](C)O)[C@@H](C)O)[C@@H](C)O)[C@@H](C)O)C(C)C)[C@@H](C)O) [[N-terminal(C20 diacid-gGlu), des1, 4G, 9V, 15Q, 21Q, 23Y, 30S, 31A, 32T, 33Y]mimylin]	53 pM	52 pM
{C18 diacid}-EASELSTAALGRLSAEIHELATLPRTETGPESP-NH2 (SMILES CC[C@H](C)[C@H](NC(=O)[C@H](CCC(=O)O)NC(=O)[C@H](C)NC(=O)[C@H](CO)NC(=O)[C@H](CC(C)C)NC(=O)[C@H](CCCNC(=N)N)NC(=O)CNC(=O)[C@H](CC(C)C)NC(=O)[C@H](C)NC(=O)[C@H](C)NC(=O)[C@@H](NC(=O)[C@H](CO)NC(=O)[C@H](CC(C)C)NC(=O)[C@H](CCC(=O)O)NC(=O)[C@H](CO)NC(=O)[C@H](C)NC(=O)[C@H](CCC(=O)O)NC(=O)CCCCCCCCCCCCCCCCC(=O)O)[C@@H](C)O)C(=O)N[C@@H](Cc1c[nH]cn1)C(=O)N[C@@H](CCC(=O)O)C(=O)N[C@@H](CC(C)C)C(=O)N[C@@H](C)C(=O)N[C@H](C(=O)N[C@@H](CC(C)C)C(=O)N1CCC[C@H]1C(=O)N[C@@H](CCCNC(=N)N)C(=O)N[C@H](C(=O)N[C@@H](CCC(=O)O)C(=O)N[C@H](C(=O)NCC(=O)N1CCC[C@H]1C(=O)N[C@@H](CCC(=O)O)C(=O)N[C@@H](CO)C(=O)N1CCC[C@H]1C(N)=O)[C@@H](C)O)[C@@H](C)O)[C@@H](C)O) [[N-terminal(C18 diacid), 17I]mimylin]	7 pM	5 pM
{C18 diacid-γGlu-AEEA-AEEA}-ASGLSTAVLGRLSQELHELQTYPRTETGSGTY-NH2 (SMILES CC(C)C[C@H](NC(=O)CNC(=O)[C@H](CO)NC(=O)[C@H](C)NC(=O)COCCOCCNC(=O)COCCOCCNC(=O)CC[C@H](NC(=O)CCCCCCCCCCCCCCCCC(=O)O)C(=O)O)C(=O)N[C@@H](CO)C(=O)N[C@H](C(=O)N[C@@H](C)C(=O)N[C@H](C(=O)N[C@@H](CC(C)C)C(=O)NCC(=O)N[C@@H](CCCNC(=N)N)C(=O)N[C@@H](CC(C)C)C(=O)N[C@@H](CO)C(=O)N[C@@H](CCC(N)=O)C(=O)N[C@@H](CCC(=O)O)C(=O)N[C@@H](CC(C)C)C(=O)N[C@@H](Cc1c[nH]cn1)C(=O)N[C@@H](CCC(=O)O)C(=O)N[C@@H](CC(C)C)C(=O)N[C@@H](CCC(N)=O)C(=O)N[C@H](C(=O)N[C@@H](Cc1ccc(O)cc1)C(=O)N1CCC[C@H]1C(=O)N[C@@H](CCCNC(=N)N)C(=O)N[C@H](C(=O)N[C@@H](CCC(=O)O)C(=O)N[C@H](C(=O)NCC(=O)N[C@@H](CO)C(=O)NCC(=O)N[C@H](C(=O)N[C@@H](Cc1ccc(O)cc1)C(N)=O)[C@@H](C)O)[C@@H](C)O)[C@@H](C)O)[C@@H](C)O)C(C)C)[C@@H](C)O) [[N-terminal(C18 diacid-gGlu-2xOEG), des1, 4G, 9V, 15Q, 21Q, 23Y, 30S, 31G, 32T, 33Y]mimylin]	50 pM	22 pM

Continued, values first:

hAmylin-R funct. EC50 (pM) [1]	hCTR funct. EC50 (pM) [2]	Binder
57 pM	65 pM	{C20 diacid-γGlu}-ASGLSTAVLGRLSQELHELQTYPRTETGSGTY-NH2 (SMILES CC(C)C[C@H](NC(=O)CNC(=O)[C@H](CO)NC(=O)[C@H](C)NC(=O)CC[C@H](NC(=O)CCCCCCCCCCCCCCCCCCC(=O)O)C(=O)O)C(=O)N[C@@H](CO)C(=O)N[C@H](C(=O)N[C@@H](C)C(=O)N[C@H](C(=O)N[C@@H](CC(C)C)C(=O)NCC(=O)N[C@@H](CCCNC(=N)N)C(=O)N[C@@H](CC(C)C)C(=O)N[C@@H](CO)C(=O)N[C@@H](CCC(N)=O)C(=O)N[C@@H](CCC(=O)O)C(=O)N[C@@H](CC(C)C)C(=O)N[C@@H](Cc1c[nH]cn1)C(=O)N[C@@H](CCC(=O)O)C(=O)N[C@@H](CC(C)C)C(=O)N[C@@H](CCC(N)=O)C(=O)N[C@H](C(=O)N[C@@H](Cc1ccc(O)cc1)C(=O)N1CCC[C@H]1C(=O)N[C@@H](CCCNC(=N)N)C(=O)N[C@H](C(=O)N[C@@H](CCC(=O)O)C(=O)N[C@H](C(=O)NCC(=O)N[C@@H](CO)C(=O)NCC(=O)N[C@H](C(=O)N[C@@H](Cc1ccc(O)cc1)C(N)=O)[C@@H](C)O)[C@@H](C)O)[C@@H](C)O)[C@@H](C)O)C(C)C)[C@@H](C)O) [[N-terminal(C20 diacid-gGlu), des1, 4G, 9V, 15Q, 21Q, 23Y, 30S, 31G, 32T, 33Y]mimylin]
41 pM	27 pM	{C20 diacid-γGlu}-ASGLSTAALGRLSQELHELQTYPHTETGSGTY-NH2 (SMILES CC(C)C[C@H](NC(=O)CNC(=O)[C@H](CO)NC(=O)[C@H](C)NC(=O)CC[C@H](NC(=O)CCCCCCCCCCCCCCCCCCC(=O)O)C(=O)O)C(=O)N[C@@H](CO)C(=O)N[C@H](C(=O)N[C@@H](C)C(=O)N[C@@H](C)C(=O)N[C@@H](CC(C)C)C(=O)NCC(=O)N[C@@H](CCCNC(=N)N)C(=O)N[C@@H](CC(C)C)C(=O)N[C@@H](CO)C(=O)N[C@@H](CCC(N)=O)C(=O)N[C@@H](CCC(=O)O)C(=O)N[C@@H](CC(C)C)C(=O)N[C@@H](Cc1c[nH]cn1)C(=O)N[C@@H](CCC(=O)O)C(=O)N[C@@H](CC(C)C)C(=O)N[C@@H](CCC(N)=O)C(=O)N[C@H](C(=O)N[C@@H](Cc1ccc(O)cc1)C(=O)N1CCC[C@H]1C(=O)N[C@@H](Cc1c[nH]cn1)C(=O)N[C@H](C(=O)N[C@@H](CCC(=O)O)C(=O)N[C@H](C(=O)NCC(=O)N[C@@H](CO)C(=O)NCC(=O)N[C@H](C(=O)N[C@@H](Cc1ccc(O)cc1)C(N)=O)[C@@H](C)O)[C@@H](C)O)[C@@H](C)O)[C@@H](C)O)[C@@H](C)O) [[N-terminal(C20 diacid-gGlu), des1, 4G, 15Q, 21Q, 23Y, 25H, 30S, 31G, 32T, 33Y]mimylin]
72 pM	49 pM	{C20 diacid-γGlu}-ASGLSTAVLGRLSQELHELQTYPRTETGSQTY-NH2 (SMILES CC(C)C[C@H](NC(=O)CNC(=O)[C@H](CO)NC(=O)[C@H](C)NC(=O)CC[C@H](NC(=O)CCCCCCCCCCCCCCCCCCC(=O)O)C(=O)O)C(=O)N[C@@H](CO)C(=O)N[C@H](C(=O)N[C@@H](C)C(=O)N[C@H](C(=O)N[C@@H](CC(C)C)C(=O)NCC(=O)N[C@@H](CCCNC(=N)N)C(=O)N[C@@H](CC(C)C)C(=O)N[C@@H](CO)C(=O)N[C@@H](CCC(N)=O)C(=O)N[C@@H](CCC(=O)O)C(=O)N[C@@H](CC(C)C)C(=O)N[C@@H](Cc1c[nH]cn1)C(=O)N[C@@H](CCC(=O)O)C(=O)N[C@@H](CC(C)C)C(=O)N[C@@H](CCC(N)=O)C(=O)N[C@H](C(=O)N[C@@H](Cc1ccc(O)cc1)C(=O)N1CCC[C@H]1C(=O)N[C@@H](CCCNC(=N)N)C(=O)N[C@H](C(=O)N[C@@H](CCC(=O)O)C(=O)N[C@H](C(=O)NCC(=O)N[C@@H](CO)C(=O)N[C@@H](CCC(N)=O)C(=O)N[C@H](C(=O)N[C@@H](Cc1ccc(O)cc1)C(N)=O)[C@@H](C)O)[C@@H](C)O)[C@@H](C)O)[C@@H](C)O)C(C)C)[C@@H](C)O) [[N-terminal(C20 diacid-gGlu), des1, 4G, 9V, 15Q, 21Q, 23Y, 30S, 31Q, 32T, 33Y]mimylin]
89 pM	52 pM	{C20 diacid-γGlu-AEEA-AEEA}-ASGLSTAVLGRLSQELHELQTYPRTETGSGTY-NH2 (SMILES CC(C)C[C@H](NC(=O)CNC(=O)[C@H](CO)NC(=O)[C@H](C)NC(=O)COCCOCCNC(=O)COCCOCCNC(=O)CC[C@H](NC(=O)CCCCCCCCCCCCCCCCCCC(=O)O)C(=O)O)C(=O)N[C@@H](CO)C(=O)N[C@H](C(=O)N[C@@H](C)C(=O)N[C@H](C(=O)N[C@@H](CC(C)C)C(=O)NCC(=O)N[C@@H](CCCNC(=N)N)C(=O)N[C@@H](CC(C)C)C(=O)N[C@@H](CO)C(=O)N[C@@H](CCC(N)=O)C(=O)N[C@@H](CCC(=O)O)C(=O)N[C@@H](CC(C)C)C(=O)N[C@@H](Cc1c[nH]cn1)C(=O)N[C@@H](CCC(=O)O)C(=O)N[C@@H](CC(C)C)C(=O)N[C@@H](CCC(N)=O)C(=O)N[C@H](C(=O)N[C@@H](Cc1ccc(O)cc1)C(=O)N1CCC[C@H]1C(=O)N[C@@H](CCCNC(=N)N)C(=O)N[C@H](C(=O)N[C@@H](CCC(=O)O)C(=O)N[C@H](C(=O)NCC(=O)N[C@@H](CO)C(=O)NCC(=O)N[C@H](C(=O)N[C@@H](Cc1ccc(O)cc1)C(N)=O)[C@@H](C)O)[C@@H](C)O)[C@@H](C)O)[C@@H](C)O)C(C)C)[C@@H](C)O) [[N-terminal(C20 diacid-gGlu-2xOEG), des1, 4G, 9V, 15Q, 21Q, 23Y, 30S, 31G, 32T, 33Y]mimylin]
